{
  "source": "paper PMC10373542",
  "about": "(Journal of Virology, 2023)",
  "binders": {"B1": {"name": "Walter Reed Army Institute of Research 2063 (WRAIR-2063) monoclonal antibody, human IgG1 (antibody, V domains shown)", "VH": "EVQLVESGGGVVQPGRSLRLSCAASGFTFSSYGMHWVRQAPGKGLEWVAVIWYDGSNKYYADSVKGRFTISRDNSKNTLYLQMNSLRAEDTAVYYCARGPLGSNYFNYDAFDIWGQGTMVTVSS", "VL": "DVVMTQSPLSLPVTLGQPASISCRSSQSLEYSDGNTYLNWFQQRPGQSPRRLIYKVSKRDSGVPDRFSGSGSGSDFTLKISRVEAEDVGVYYCMQGTHWPLTFGGGTKVEIK"}, "B2": {"name": "ION-300 monoclonal antibody (antibody, V domains shown)", "VH": "QVQLVQSGAEVKKPGESLKISCKGSGYSFTSYWIGWVRQMPGKGLEWMGIIYPGDSDTRYSPSFQGQVTISADKSISTAYLQWSSLKASDTAMYYCARHPSPYYYGSGSYSGGFDYWGQGTLVTVSS", "VL": "DIVMTQSPGTLSLSPGERATLSCRASQSVSSSYLAWYQQKPGQAPRLLIYGASTRATGIPARFSGSGSGTEFTLTISSLQSEDFAVYYCQQYDNWPLMHTFGQGTKLEIK"}, "B3": {"name": "7D6 monoclonal antibody (antibody, V domains shown)", "VH": "EVQLQQSGAELVRPGASVKLSCTASGFNIKDTYIHWVKQRPEQGLEWIGRIDPGDGDTEYDPSFQGKATITADTSSNTAYLELSSLTSEDTAVYYCTRFYDYVDYGMDYWGQGTSVTVSS", "VL": "DIQMTQSPASLSASVGETVTITCRASGNIHNYLAWYQQKQGKSPQLLVYNAKTLADGVPSRFSGSGSGTQYSLKINSLQPEDFGSYYCQHFWSTPPWTFGGGTKLEVK"}, "B4": {"name": "N-612-056 monoclonal antibody (antibody, V domains shown)", "VH": "not shown", "VL": "DIQMTQSPSSLSASVGDRVTITCQASQDISNYLNWYQQKPGKAPKLLIYDASNLETGVPSRFSGSGSGTDFTFTISSLQPEDIATYYCQQDAGTPLTFGQGTKVEIK"}, "B5": {"name": "WRAIR-2057 monoclonal antibody (antibody, V domains shown)", "VH": "EVQLVQSGAEVKKPGESLKISCKGSGYSFISYWIAWVRQMPGKGLEWMGIIYPGDSDTTYSPSFQGQVTISADKSISTAYLQWSSLKASDTAIYYCARLLYYSDSSPLDSWGQGTLVTVSS", "VL": "DIQMTQSPSSLSASVGDRVTITCRASQSISTYLNWYQQKPGKAPNLLIYAASSLQSGVPSRFSGSGSGTDFTLTISSLQPEDFATYYCQQSHSTPRTFGPGTKVDIK"}, "B6": {"name": "FD20 monoclonal antibody (antibody, V domains shown)", "VH": "QVQLQQSGAEVKKPGSSVKVSCKASGGTFSSYAFSWVRQAPGQGLEWMGRIIPILGIANYAQKFQGRVTITADISTSTAYMALSSLRSEDTAVYYCAKVEVNIGMDDYYYYYGMDVWGQGTTVTVSS", "VL": "not shown"}, "B7": {"name": "WRAIR-2134 monoclonal antibody (antibody, V domains shown)", "VH": "EVQLVESGGGVVQPGRSLRLSCAASGFIFSSYGMYWVRQAPGKGLEWVAVIWYDGSNKYYADSVKGRFTISRDNSKNTLYLQMNSLRAEDTAVYYCARDLSSSSGWDDYYYYYGMDVWGQGTTVTVSS", "VL": "not shown"}, "B8": {"name": "S2H97 monoclonal antibody (antibody, V domains shown)", "VH": "QVRLVQSGAEVKKSGESLKISCKGSGYSFTSYWIGWVRQMPGKGLEWMGIIYPGDSDTRYSPSFQGQVTISADKSISTVYLQWSSLKASDTAMYYCARQWSHYTYDYYYWGQGTLVTISS", "VL": "QSVLTQPASVSGSPGQSITISCTGISSDVGGYNSVSWYQQHPGKAPKLMIYDVTNRPSGVSNRFSGSKSGNTASLTISGLQAEDEADYYCSSYTSSSTPPYVFGTGTKVSVL"}, "B9": {"name": "6D6 monoclonal antibody (antibody, V domains shown)", "VH": "EVQLQQSGAELVKPGASVKLSCTTSGFNIIDTYMHWVKQRPEEGLEWIGGIDPVNGNSEYDPKFQDKATITADTSSNTAYLHLSRLTSEDTAVYYCASAHYYGSSSSFPYWGQGTDLVTVS", "VL": "DIVMTQSQKFMSTSVGDRVSVTCKASQNVGTHVAWYQQKPGQSPKALIYSASYRYSGVPDRFTGSGVGTDFTLTITNVQSEDLAEYFCQQYNSYFTFGSGTKLEIK"}, "B10": {"name": "COVOX-45 monoclonal antibody (antibody, V domains shown)", "VH": "QVQLVESGGGVVQPGRSLRLSCAASGFTFSTYAMHWVRQAPGKGLEWVAVLSYDGSNKYYADSVKGRFTISRDNSKNTLYLQMNSLRAEDTAVYYCAKGGSYAYYYYMDVWGKGTTVTVSS", "VL": "not shown"}, "B11": {"name": "X17 monoclonal antibody (antibody, V domains shown)", "VH": "QVQLQQSGAELARPGASVKLSCKASGYTFTFYWMQWLKQRPGQGLEWIGAIYPGDGDTRYTQRFKDKATLTADKSSSTAYIQLSSLASEDSAVYYCAGGEYDNYGFDYWGQGTTLTVSS", "VL": "DIQMTQTTSSLSASLGDRVTISCRASQDISNYLNWYQQKPDGTVKLLIYYTSRLHSGVPSRFSGSGSGTDYSLTISNLEQEDIATYFCQQGTTLPYTFGGGTKLEIK"}},
  "key": {"[1]": {"molecular_target": "T1, SARS-CoV-2 WA-1 spike receptor binding domain (RBD) (SARS-CoV-2 WA-1 (S identical to …, UniProt P0DTC2))", "assay": "cell-based or functional assay"}, "[2]": {"molecular_target": "T1, SARS-CoV-2 WA-1 spike receptor binding …", "assay": "BLI"}, "[3]": {"molecular_target": "T1, SARS-CoV-2 WA-1 spike receptor binding …", "assay": "BLI", "remark": "listed apart in the source"}},
  "data": [
    {"binder": "B1", "values": [
      {"measurement": "IC50 of neutralization of WA-1 pseudotyped virus on HEK293 cells expressing ACE2", "setting": "[1]", "value": 0.45, "unit": "µg/mL"}
    ]},
    {"binder": "B2", "values": [
      {"measurement": "Kd", "setting": "[2]", "value": 3.65, "unit": "nM"},
      {"measurement": "IC50 of neutralization of WA-1 pseudotyped virus on HEK293 cells expressing ACE2", "setting": "[1]", "value": 0.99, "unit": "µg/mL"},
      {"measurement": "fold higher rate of dissociation (koff) than with WRAIR-2063", "setting": "[3]", "value": "~10", "unit": "fold"}
    ]},
    {"binder": "B3", "values": [
      {"measurement": "Kd", "setting": "[2]", "value": 3.41, "unit": "nM"},
      {"measurement": "IC50 of neutralization of WA-1 pseudotyped virus on HEK293 cells expressing ACE2", "setting": "[1]", "value": 0.33, "unit": "µg/mL"},
      {"measurement": "fold higher rate of dissociation (koff) than with WRAIR-2063", "setting": "[3]", "value": "~10", "unit": "fold"}
    ]},
    {"binder": "B4", "values": [
      {"measurement": "Kd", "setting": "[2]", "value": 6.31, "unit": "nM"},
      {"measurement": "IC50 of neutralization of WA-1 pseudotyped virus on HEK293 cells expressing ACE2", "setting": "[1]", "value": 4.47, "unit": "µg/mL"},
      {"measurement": "fold higher rate of dissociation (koff) than with WRAIR-2063", "setting": "[3]", "value": "~10", "unit": "fold"}
    ]},
    {"binder": "B5", "values": [
      {"measurement": "Kd", "setting": "[2]", "value": 6.3, "unit": "nM"},
      {"measurement": "IC50 of neutralization of WA-1 pseudotyped virus on HEK293 cells expressing ACE2", "setting": "[1]", "value": 1.85, "unit": "µg/mL"},
      {"measurement": "fold higher rate of dissociation (koff) than with WRAIR-2063", "setting": "[3]", "value": "~10", "unit": "fold"}
    ]},
    {"binder": "B6", "values": [
      {"measurement": "Kd", "setting": "[2]", "value": 3.07, "unit": "nM"},
      {"measurement": "IC50 of neutralization of WA-1 pseudotyped virus on HEK293 cells expressing ACE2", "setting": "[1]", "value": 0.6, "unit": "µg/mL"},
      {"measurement": "fold higher rate of dissociation (koff) than with WRAIR-2063", "setting": "[3]", "value": "~10", "unit": "fold"}
    ]},
    {"binder": "B7", "values": [
      {"measurement": "Kd", "setting": "[2]", "value": 4.26, "unit": "nM"},
      {"measurement": "IC50 of neutralization of WA-1 pseudotyped virus on HEK293 cells expressing ACE2", "setting": "[1]", "value": 18.6, "unit": "µg/mL"},
      {"measurement": "fold higher rate of dissociation (koff) than with WRAIR-2063", "setting": "[3]", "value": "~10", "unit": "fold"}
    ]},
    {"binder": "B8", "values": [
      {"measurement": "Kd", "setting": "[2]", "value": 0.9, "unit": "nM"},
      {"measurement": "IC50 of neutralization of WA-1 pseudotyped virus on HEK293 cells expressing ACE2", "setting": "[1]", "value": 0.31, "unit": "µg/mL"}
    ]},
    {"binder": "B9", "values": [
      {"measurement": "Kd", "setting": "[2]", "value": 3.62, "unit": "nM"},
      {"measurement": "IC50 of neutralization of WA-1 pseudotyped virus on HEK293 cells expressing ACE2", "setting": "[1]", "value": 1.37, "unit": "µg/mL"},
      {"measurement": "fold higher rate of dissociation (koff) than with WRAIR-2063", "setting": "[3]", "value": "~10", "unit": "fold"}
    ]},
    {"binder": "B10", "values": [
      {"measurement": "Kd", "setting": "[2]", "value": 4.43, "unit": "nM"},
      {"measurement": "IC50 of neutralization of WA-1 pseudotyped virus on HEK293 cells expressing ACE2", "setting": "[1]", "value": 0.32, "unit": "µg/mL"},
      {"measurement": "fold higher rate of dissociation (koff) than with WRAIR-2063", "setting": "[3]", "value": "~10", "unit": "fold"}
    ]},
    {"binder": "B11", "values": [
      {"measurement": "Kd", "setting": "[2]", "value": 4.72, "unit": "nM"},
      {"measurement": "IC50 of neutralization of WA-1 pseudotyped virus on HEK293 cells expressing ACE2", "setting": "[1]", "value": 2.27, "unit": "µg/mL"},
      {"measurement": "fold higher rate of dissociation (koff) than with WRAIR-2063", "setting": "[3]", "value": "~10", "unit": "fold"}
    ]}
  ]
}
